Reference: publication PMC4072592, “The EJC Binding and Dissociating Activity of PYM Is Regulated in Drosophila” (PLoS Genetics, 2014)

Target: T1, FL-PYM-GFP (S2 cells) (Drosophila, UniProt P82804 1-207)
T1 construct: Drosophila PYM (wibg, CG30176), full length coding region amplified from ovarian cDNA; also called GFP-tagged FL-PYM; source: S2 cells, transiently transfected, in cytoplasmic extract; not shown: eGFP, C-terminal, kept
T1 sequence (looked up): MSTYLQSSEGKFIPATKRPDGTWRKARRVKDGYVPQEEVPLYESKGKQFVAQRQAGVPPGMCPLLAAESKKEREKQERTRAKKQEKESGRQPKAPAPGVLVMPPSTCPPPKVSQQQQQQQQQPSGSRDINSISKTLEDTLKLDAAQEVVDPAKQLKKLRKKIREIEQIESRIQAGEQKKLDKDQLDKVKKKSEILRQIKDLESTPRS
Test: co-IP + cross-linking; as the native GFP-Trap IP from S2 cell extracts, but extracts cross-linked with 1 mM DSP for 1 h at 4°C before the IP; blots quantified by densitometry
Details: partners not purified

fold increase of binding upon DSP treatment against native: 1.7 fold
B1: Y14-Mago heterodimer, endogenous in S2 cells (complex)
chain 1: not shown
chain 2: not shown
notes: Y14 (Tsunagi), Drosophila, endogenous; Mago nashi (Mago), Drosophila, endogenous; also called Mago and Y14; Mago-Y14; source: endogenous, cytoplasmic extract of Drosophila S2 cells
